2 molecules from patent US20190367615A1 (BEIJING HANMI PHARM, published 2019) can be followed below.

For assay [1], the target named is T1, Recombinant human PD-1-Fc (human, UniProt Q15116 25-167, limits assumed).
T1 construct: also called recombinant human PD-1-Fc protein; not shown: Fc part
The assay can be described thus: competition ELISA, coated human PD-1-Fc, blocked ligand biotin-labeled PD-L1 (final 10 nM), streptavidin-HRP, OD450nm. The protocol:
(§1) The plate was washed five times with PBST. […] The plate was washed five times with PBST. […] The plate was washed five times with PBST. 100 μL/well of colorimetric substrate TMB was added and incubated at room temperature for 10 minutes. Color development was terminated by adding 100 μL/well of 1 M H₂SO₄. The absorbance at 450 nm was read on a microplate reader.
(An ELISA detects its analyte on a solid surface through an enzyme-linked reagent.)

Assay [2] addresses T2, Recombinant human PD-1 (Sino Biological Inc., Catalog Number 10377-H08H) (human, UniProt Q15116 25-167).
T2 construct: Bought protein; also called antigen PD-1
Put plainly: ELISA, coated recombinant human PD-1 (1 ug/mL), detection with anti-mouse IgG-HRP, OD450nm. As to the method: as §1

For assay [3], the target named is T2, Recombinant human PD-1 (Sino Biological …). The assay can be described thus: ELISA, human PD-1 coated. As to the method:
Recombinant human PD-1 (purchased from Sino Biological Inc.) was coated on a 96-well high-absorbing ELISA plate with a carbonate buffer solution with pH 9.6, the coating concentration was 1 μg/mL, the coating amount was 100 μL per well, and the coating was carried out at 4° C. overnight. The plate was washed five times with PBST and blocked with 300 μL/well of PBST containing 1% BSA, and then incubated at 25° C. for 1 hour. The plate was washed five times with PBST. […] The plate was washed five times with PBST. Then, horseradish peroxidase-labeled anti-human IgG antibody (Chemicon, Catalog Number AP309P) 1:2000 diluted in PBST containing 1% BSA was added, 100 μL per well, incubated at 25° C. for 1 hour. The plate was washed five times with PBST. 100 μL/well of colorimetric substrate TMB was added and incubated at room temperature for 10 minutes. Color development was terminated by adding 100 μL/well of 1 M H₂SO₄. The absorbance at 450 nm was read on a microplate reader.

Assay [4] concerns the target T1, Recombinant human PD-1-Fc. The assay can be described thus: competition ELISA, PD-1-Fc coated, competitor biotin-labeled PD-L1. As to the method:
Recombinant human PD-1-Fc was coated on a 96-well high-absorbing ELISA plate with a carbonate buffer solution with pH 9.6, the coating concentration was 1 μg/mL, the coating amount was 100 μL per well, and the coating was carried at 4° C. out overnight. The plate was washed five times with PBST and blocked with 300 μL/well of PBST containing 1% BSA and incubated at 25° C. for 1 hour. The plate was washed five times with PBST. The positive control and the anti-human PD-1 antibody sample were added, 50 μL per well. […] The plate was washed five times with PBST. Then, Streptavidin-HRP (BD Pharmingen, Catalog Number 554066) 1:1000 diluted in PBST containing 1% BSA was added, 100 μL per well, incubated at 25° C. for 1 hour. The plate was washed five times with PBST. 100 μL/well of colorimetric substrate TMB was added and incubated at room temperature for 10 minutes. Color development was terminated by adding 100 μL/well of 1 M H₂SO₄. The absorbance at 450 nm was read on a microplate reader.

Where a chain is given by its changes, count along the chain named.

T1 sequence (Q15116 25-167 limits assumed): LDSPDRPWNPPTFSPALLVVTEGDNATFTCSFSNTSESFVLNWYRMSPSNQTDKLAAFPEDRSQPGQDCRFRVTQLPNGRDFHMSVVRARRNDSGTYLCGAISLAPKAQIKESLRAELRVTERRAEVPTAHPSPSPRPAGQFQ
T2 sequence (Q15116 25-167 limits assumed): as above

B1: murine anti-human PD-1 monoclonal antibody secreted by Clone No. 2 (antibody, V domains shown)
VH: EVQLQESGGGLVKPGGSLKLSCAASGFTFSSYGMSWVRQTPEKRLEWVASISGGGRYTYYPDSMKGRFTISRDNAKNNLHLQMSSLRSEDTALYYCVYEYFYTMDYWGQGTSVTVSS
VL: DIVLTQSPATLSVTPGDSVSLSCRANQSISNNLHWYQQRSHESPRLLIRFASQSISGIPSRFSGSGSGTDFTLSINSVETEDFGMYFCQQSDNWPLTFGAGTKLEIK
notes: Hybridoma culture supernatant; Clone No. 2 is the only clone named, so the tie is implicit
Take B1: the IC50 (usually the concentration at which inhibition is half-maximal) in assay [1] is 0.838 nM. Further, the EC50 (usually the midpoint of the concentration-response curve) in assay [2] was found to be 0.052 nM.

B2: BMIV (antibody, human IgG4 S228P, kappa, V domains shown)
VH: B1 VH with Q3N, Q5V, K13Q, K19R, E42G, R44G, A75S, S88A, L93V, S112L
VL: DVVLTQSPATLSVSPGERVTLSCRANQSISNNLHWYQQKSHQSPRLLIRFASQSISGIPARFSGSGSGTDFTLTISSVETEDFGVYFCQQSDNWPLTFGGGTKLEIKR
As for B2, the concentration for a half-maximal effect (EC50) in assay [3] was determined as 0.028 nM. In addition, the half-maximal inhibitory concentration (IC50) in assay [4] was determined as 1.3 nM.
